Five variants from IntAct's records for PubMed 29892012 can be followed below.

The labels stand for the following.
B1: Coiled-coil domain-containing protein 120 (Homo sapiens), Q96HB5-4 (parent)
chain: MRREPRYQGQVGPDIHTDSERTLSSHQPRPLDSTKMEVKGQLISSPTFNAPAALFGEAAPQVKSERLRGLLDRQRTLQEALSLKLQELRKVCLQEAELTGQLPPECPLEPGERPQLVRRRPPTARAYPPPHPNQAHHSLCPAEELALEALEREVSVQQQIAAAARRLALAPDLSTEQRRRRRQVQADALRRLHELEEQLRDVRARLGLPVLPLPQPLPLSTGSVITTQGVCLGMRLAQLSQEDVVLHSESSSLSESGASHDNEEPHGCFSLAERPSPPKAWDQLRAVSGGSPERRTPWKPPPSDLYGDLKSRRNSVASPTSPTRSLPRSASSFEGRSVPATPVLTRGAGPQLCKPEGLHSRQWSGSQDSQMGFPRADPASDRASLFVARTRRSNSSEALLVDRAAGGGAGSPPAPLAPSASGPPVCKSSEVLYERPQPTPAFSSRTAGPPDPPRAARPSSAAPASRGAPRLPPVCGDFLLDYSLDRGLPRSGGGTGWGELPPAAEVPGPLSRRDGLLTMLPGPPPVYAADSNSPLLRTKDPHTRATRTKPCGLPPEAAEGPEVHPNPLLWMPPPTRIPSAGERSGHKNLALEGLRDWYIRNSGLAAGPQRRPVLPSVGPPHPPFLHARCYEVGQALYGAPSQAPLPHSRSFTAPPVSGRYYADFLYPPELSARLSDLTLEGEQSSSSDTQTPGTLV
partner: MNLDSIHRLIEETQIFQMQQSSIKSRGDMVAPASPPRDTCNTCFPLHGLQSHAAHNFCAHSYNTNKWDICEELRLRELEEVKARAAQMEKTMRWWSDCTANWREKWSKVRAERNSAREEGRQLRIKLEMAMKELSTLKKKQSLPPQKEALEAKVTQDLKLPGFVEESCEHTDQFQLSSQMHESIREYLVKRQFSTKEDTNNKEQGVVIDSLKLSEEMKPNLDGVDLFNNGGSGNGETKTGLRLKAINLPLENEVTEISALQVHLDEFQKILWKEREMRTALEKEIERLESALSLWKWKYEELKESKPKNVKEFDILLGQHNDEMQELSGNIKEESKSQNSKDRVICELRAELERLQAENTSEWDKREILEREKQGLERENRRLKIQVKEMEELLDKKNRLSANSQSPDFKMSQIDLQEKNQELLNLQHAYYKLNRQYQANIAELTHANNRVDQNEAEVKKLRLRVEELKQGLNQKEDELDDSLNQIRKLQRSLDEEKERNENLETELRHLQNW
B2: Myotubularin-related protein 9 (Homo sapiens), Q96QG7 (parent)
chain: MEFAELIKTPRVDNVVLHRPFYPAVEGTLCLTGHHLILSSRQDNTEELWLLHSNIDAIDKRFVGSLGTIIIKCKDFRIIQLDIPGMEECLNIASSIEALSTLDSITLMYPFFYRPMFEVIEDGWHSFLPEQEFELYSSATSEWRLSYVNKEFAVCPSYPPIVTVPKSIDDEALRKVATFRHGGRFPVLSYYHKKNGMVIMRSGQPLTGTNGRRCKEDEKLINATLRAGKRGYIIDTRSLNVAQQTRAKGGGFEQEAHYPQWRRIHKSIERYHILQESLIKLVEACNDQTHNMDRWLSKLEASNWLTHIKEILTTACLAAQCIDREGASILIHGTEGTDSTLQVTSLAQIILEPRSRTIRGFEALIEREWLQAGHPFQQRCAQSAYCNTKQKWEAPVFLLFLDCVWQILRQFPCSFEFNENFLIMLFEHAYASQFGTFLGNNESERCKLKLQQKTMSLWSWVNQPSELSKFTNPLFEANNLVIWPSVAPQSLPLWEGIFLRWNRSSKYLDEAYEEMVNIIEYNKELQAKVNILRRQLAELETEDGMQESP
partner: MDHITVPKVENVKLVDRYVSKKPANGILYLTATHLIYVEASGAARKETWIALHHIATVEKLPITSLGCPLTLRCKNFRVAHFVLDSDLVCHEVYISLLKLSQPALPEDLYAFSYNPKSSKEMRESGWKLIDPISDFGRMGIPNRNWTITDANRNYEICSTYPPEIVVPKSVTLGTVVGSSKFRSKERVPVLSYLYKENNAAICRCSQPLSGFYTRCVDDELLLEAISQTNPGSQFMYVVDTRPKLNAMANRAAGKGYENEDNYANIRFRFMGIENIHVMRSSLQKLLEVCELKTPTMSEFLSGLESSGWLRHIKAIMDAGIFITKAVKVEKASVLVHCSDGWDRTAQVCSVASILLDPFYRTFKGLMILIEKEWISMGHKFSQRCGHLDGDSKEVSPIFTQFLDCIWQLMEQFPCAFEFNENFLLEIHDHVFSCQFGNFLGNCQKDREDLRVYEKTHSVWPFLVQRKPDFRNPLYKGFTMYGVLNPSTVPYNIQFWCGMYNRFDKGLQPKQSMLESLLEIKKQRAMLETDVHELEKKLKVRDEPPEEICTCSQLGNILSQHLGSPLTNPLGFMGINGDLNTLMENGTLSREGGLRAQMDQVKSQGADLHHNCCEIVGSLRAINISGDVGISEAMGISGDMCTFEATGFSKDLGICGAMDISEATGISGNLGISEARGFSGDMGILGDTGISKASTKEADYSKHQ
B3: TBC1 domain family member 22B (Homo sapiens), Q9NU19 (parent)
chain: MAAENSKQFWKRSAKLPGSIQPVYGAQHPPLDPRLTKNFIKERSKVNTVPLKNKKASSFHEFARNTSDAWDIGDDEEEDFSSPSFQTLNSKVALATAAQVLENHSKLRVKPERSQSTTSDVPANYKVIKSSSDAQLSRNSSDTCLRNPLHKQQSLPLRPIIPLVARISDQNASGAPPMTVREKTRLEKFRQLLSSQNTDLDELRKCSWPGVPREVRPITWRLLSGYLPANTERRKLTLQRKREEYFGFIEQYYDSRNEEHHQDTYRQIHIDIPRTNPLIPLFQQPLVQEIFERILFIWAIRHPASGYVQGINDLVTPFFVVFLSEYVEEDVENFDVTNLSQDMLRSIEADSFWCMSKLLDGIQDNYTFAQPGIQKKVKALEELVSRIDEQVHNHFRRYEVEYLQFAFRWMNNLLMRELPLRCTIRLWDTYQSEPEGFSHFHLYVCAAFLIKWRKEILDEEDFQGLLMLLQNLPTIHWGNEEIGLLLAEAYRLKYMFADAPNHYRR
partner: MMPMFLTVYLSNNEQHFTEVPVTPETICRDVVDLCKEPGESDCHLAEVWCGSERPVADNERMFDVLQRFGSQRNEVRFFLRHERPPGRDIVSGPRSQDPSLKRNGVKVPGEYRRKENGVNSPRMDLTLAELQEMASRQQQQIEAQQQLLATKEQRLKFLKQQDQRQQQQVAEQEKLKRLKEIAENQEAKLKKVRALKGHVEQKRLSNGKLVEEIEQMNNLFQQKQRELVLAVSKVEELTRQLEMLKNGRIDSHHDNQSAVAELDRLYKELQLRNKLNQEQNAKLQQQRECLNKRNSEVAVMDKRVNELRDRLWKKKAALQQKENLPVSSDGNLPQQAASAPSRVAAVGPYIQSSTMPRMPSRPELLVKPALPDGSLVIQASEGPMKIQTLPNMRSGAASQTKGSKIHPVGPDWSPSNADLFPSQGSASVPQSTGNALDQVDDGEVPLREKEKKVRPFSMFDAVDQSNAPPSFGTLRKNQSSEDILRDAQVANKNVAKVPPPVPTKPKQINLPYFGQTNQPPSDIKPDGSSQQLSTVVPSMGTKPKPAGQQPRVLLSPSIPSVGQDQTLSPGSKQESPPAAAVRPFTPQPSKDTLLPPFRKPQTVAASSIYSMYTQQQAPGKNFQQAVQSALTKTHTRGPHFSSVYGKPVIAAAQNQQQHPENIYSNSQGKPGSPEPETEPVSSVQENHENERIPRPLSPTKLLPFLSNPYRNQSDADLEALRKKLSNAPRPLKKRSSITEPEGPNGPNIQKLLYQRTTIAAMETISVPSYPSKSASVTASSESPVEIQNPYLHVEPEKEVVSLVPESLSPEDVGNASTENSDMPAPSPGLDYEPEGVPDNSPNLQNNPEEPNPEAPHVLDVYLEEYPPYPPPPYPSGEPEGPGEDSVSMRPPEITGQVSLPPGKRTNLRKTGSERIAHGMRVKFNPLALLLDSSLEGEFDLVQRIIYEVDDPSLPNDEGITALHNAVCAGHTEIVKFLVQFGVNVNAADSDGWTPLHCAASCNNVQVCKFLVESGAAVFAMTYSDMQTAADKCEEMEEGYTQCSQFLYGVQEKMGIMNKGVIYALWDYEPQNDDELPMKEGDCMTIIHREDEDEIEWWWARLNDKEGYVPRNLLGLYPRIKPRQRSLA
B4: Ligand of Numb protein X 2 (Homo sapiens), Q8N448 (parent)
chain: MGTTSDEMVSVEQTSSSSLNPLCFECGQQHWTRENHLYNYQNEVDDDLVCHICLQPLLQPLDTPCGHTFCYKCLRNFLQEKDFCPLDRKRLHFKLCKKSSILVHKLLDKLLVLCPFSSVCKDVMQRCDLEAHLKNRCPGASHRRVALERRKTSRTQAEIENENGPTLLDPAGTLSPEADCLGTGAVPVERHLTSASLSTWSEEPGLDNPAFEESAGADTTQQPLSLPEGEITTIEIHRSNPYIQLGISIVGGNETPLINIVIQEVYRDGVIARDGRLLAGDQILQVNNYNISNVSHNYARAVLSQPCNTLHLTVLRERRFGNRAHNHSDSNSPREEIFQVALHKRDSGEQLGIKLVRRTDEPGVFILDLLEGGLAAQDGRLSSNDRVLAINGHDLKYGTPELAAQIIQASGERVNLTIARPGKPQPGNTIREAGNHSSSSQHHTPPPYYSRPSSHKDLTQCVTCQEKHITVKKEPHESLGMTVAGGRGSKSGELPIFVTSVPPHGCLARDGRIKRGDVLLNINGIDLTNLSHSEAVAMLKASAASPAVALKALEVQIVEEATQNAEEQPSTFSENEYDASWSPSWVMWLGLPSTLHSCHDIVLRRSYLGSWGFSIVGGYEENHTNQPFFIKTIVLGTPAYYDGRLKCGDMIVAVNGLSTVGMSHSALVPMLKEQRNKVTLTVICWPGSLV
partner: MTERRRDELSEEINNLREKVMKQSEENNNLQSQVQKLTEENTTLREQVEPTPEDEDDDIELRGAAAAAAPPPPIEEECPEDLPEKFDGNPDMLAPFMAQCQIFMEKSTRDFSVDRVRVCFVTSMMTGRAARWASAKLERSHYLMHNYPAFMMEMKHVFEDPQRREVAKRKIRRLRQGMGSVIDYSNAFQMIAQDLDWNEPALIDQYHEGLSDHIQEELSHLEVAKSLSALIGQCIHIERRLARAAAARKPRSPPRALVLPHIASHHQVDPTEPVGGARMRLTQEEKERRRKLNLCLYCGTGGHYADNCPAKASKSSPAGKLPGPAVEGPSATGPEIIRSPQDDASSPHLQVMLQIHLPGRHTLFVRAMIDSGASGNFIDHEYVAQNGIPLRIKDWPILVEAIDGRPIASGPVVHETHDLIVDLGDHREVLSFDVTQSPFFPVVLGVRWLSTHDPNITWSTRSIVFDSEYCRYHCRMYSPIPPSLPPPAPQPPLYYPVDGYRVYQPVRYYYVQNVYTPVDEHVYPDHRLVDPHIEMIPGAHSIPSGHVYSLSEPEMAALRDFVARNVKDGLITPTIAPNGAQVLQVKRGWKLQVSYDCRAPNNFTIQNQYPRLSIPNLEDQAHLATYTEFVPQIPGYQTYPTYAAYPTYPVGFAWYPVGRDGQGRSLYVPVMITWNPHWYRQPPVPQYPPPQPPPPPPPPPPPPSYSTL
B5: Coiled-coil alpha-helical rod protein 1 (Homo sapiens), Q8TD31 (parent)
chain: MFPPSGSTGLIPPSHFQARPLSTLPRMAPTWLSDIPLVQPPGHQDVSERRLDTQRPQVTMWERDVSSDRQEPGRRGRSWGLEGSQALSQQAEVIVRQLQELRRLEEEVRLLRETSLQQKMRLEAQAMELEALARAEKAGRAEAEGLRAALAGAEVVRKNLEEGSQRELEEVQRLHQEQLSSLTQAHEEALSSLTSKAEGLEKSLSSLETRRAGEAKELAEAQREAELLRKQLSKTQEDLEAQVTLVENLRKYVGEQVPSEVHSQTWELERQKLLETMQHLQEDRDSLHATAELLQVRVQSLTHILALQEEELTRKVQPSDSLEPEFTRKCQSLLNRWREKVFALMVQLKAQELEHSDSVKQLKGQVASLQEKVTSQSQEQAILQRSLQDKAAEVEVERMGAKGLQLELSRAQEARRRWQQQTASAEEQLRLVVNAVSSSQIWLETTMAKVEGAAAQLPSLNNRLSYAVRKVHTIRGLIARKLALAQLRQESCPLPPPVTDVSLELQQLREERNRLDAELQLSARLIQQEVGRAREQGEAERQQLSKVAQQLEQELQQTQESLASLGLQLEVARQGQQESTEEAASLRQELTQQQELYGQALQEKVAEVETRLREQLSDTERRLNEARREHAKAVVSLRQIQRRAAQEKERSQELRRLQEEARKEEGQRLARRLQELERDKNLMLATLQQEGLLSRYKQQRLLTVLPSLLDKKKSVVSSPRPPECSASAPVAAAVPTRESIKGSLSVLLDDLQDLSEAISKEEAVCQGDNLDRCSSSNPQMSS
partner: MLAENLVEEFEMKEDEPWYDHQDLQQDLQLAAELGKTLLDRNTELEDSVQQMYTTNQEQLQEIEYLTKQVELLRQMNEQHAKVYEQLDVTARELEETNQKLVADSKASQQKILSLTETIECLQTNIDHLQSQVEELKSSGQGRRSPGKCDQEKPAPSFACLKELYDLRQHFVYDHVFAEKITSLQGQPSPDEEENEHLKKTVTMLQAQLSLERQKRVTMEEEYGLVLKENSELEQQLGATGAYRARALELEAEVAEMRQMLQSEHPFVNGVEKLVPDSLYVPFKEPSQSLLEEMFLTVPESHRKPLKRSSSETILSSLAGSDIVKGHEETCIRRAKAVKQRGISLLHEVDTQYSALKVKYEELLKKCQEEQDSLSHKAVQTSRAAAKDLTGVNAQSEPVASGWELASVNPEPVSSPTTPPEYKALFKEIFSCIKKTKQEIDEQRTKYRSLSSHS

In the first test the parent is B1. As to conditions: with CCDC102B.
As to R346W, the “effect of a mutation on the interaction” value is “with no effect”.

The variants in the next test derive from B2. As to conditions: with mtmr8_human MTMR8, Q96EF0.
Regarding R359S, the “effect of a mutation on the interaction” value is on record as “with no effect”.

In another test the parent is B3. As to conditions: with aspp2_human TP53BP2, Q13625.
Consider A349T, for which the “effect of a mutation on the interaction” value was “disrupting interaction strength”.

In a further test the parent is B4. As to conditions: with peg10_human PEG10, Q86TG7.
As to P669A, the “effect of a mutation on the interaction” value is listed as “with no effect”.

The variants in another test derive from B5. As to conditions: with cdr2_human CDR2, Q01850.
Consider W337R, for which the “effect of a mutation on the interaction” value is on record as “disrupting interaction strength”.
